Measured values reported in patent US20240076386A1 (Pfizer, published 2024).

Tests used:
[1] = target: T1, cynomolgus monkey E-selectin, cell-surface expressed (cynomolgus monkey, UniProt P16581 22-610 (human entry)); assay: neutralization of sialyl Lewis A ligand binding, CHO cells, competition ELISA
T1 construct: also called CHO-cynomolgus monkey E-selectin cells; cynomolgus monkey CHO-E
T1 chain: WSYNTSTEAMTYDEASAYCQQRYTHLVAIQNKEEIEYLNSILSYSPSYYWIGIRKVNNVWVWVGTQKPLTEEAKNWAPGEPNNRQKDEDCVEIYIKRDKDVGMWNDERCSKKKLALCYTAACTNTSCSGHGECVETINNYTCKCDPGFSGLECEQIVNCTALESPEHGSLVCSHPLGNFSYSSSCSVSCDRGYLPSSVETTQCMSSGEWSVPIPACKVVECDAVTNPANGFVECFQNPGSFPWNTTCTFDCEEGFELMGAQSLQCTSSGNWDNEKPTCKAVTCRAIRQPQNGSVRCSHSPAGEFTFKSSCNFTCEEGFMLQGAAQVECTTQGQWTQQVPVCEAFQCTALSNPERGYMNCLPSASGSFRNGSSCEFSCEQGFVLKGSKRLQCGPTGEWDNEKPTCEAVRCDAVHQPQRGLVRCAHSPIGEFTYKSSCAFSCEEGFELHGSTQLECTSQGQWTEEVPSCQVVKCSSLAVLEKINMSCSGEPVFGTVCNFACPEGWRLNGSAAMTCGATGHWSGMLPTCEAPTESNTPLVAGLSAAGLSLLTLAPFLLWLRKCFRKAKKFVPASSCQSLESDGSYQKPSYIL
Experimental: (§1) In a static ligand cellular adhesion assay, horse radish peroxidase (HRP) conjugated E-selectin ligand (sialyl Lewis antigen) and E-selectin antibodies compete for binding to human or cynomolgus E-selectin expressed on Chinese hamster ovary (CHO) cells. The ability of anti-E-selectin antibodies to neutralize ligand binding was assessed in a static neutralization assay using a competition enzyme-linked immunosorbent assay (ELISA) to evaluate the neutralization of the sialyl Lewis antigen to Chinese hamster ovary cells (CHO) engineered to express human or cynomolgus monkey E-selectin.
(§2) CHO cells expressing E-selectin were seeded at 12,500 cells per well into a 96 well tissue culture plate and incubated at 37° C., 5% CO₂ for 48 hours to form a confluent monolayer. Plates were subsequently washed twice with 200 μL of calcium magnesium free PBS. Anti-E-selectin antibodies or an IgG1 isotype control (IgG control) were added to the assay in the presence of a small synthetic conjugate of biotinylated, sialyl Lewis A polyacrylamide (Carbosynth LLC, OS45446) or sialyl Lewis X polyacrylamide (Glycotech, 01-045) with streptavidin/horseradish peroxidase (100 μL total) and incubated at 37° C., 5% CO₂ for 2 hours. […] Reactions were stopped using 2 M of sulfuric acid and absorbance was read at 450 nm (Spectramax M5e). Data were analyzed and graphed using GraphPad Prism software (Version 8.0.2).

[2] = target: T2, human E-selectin, cell-surface expressed (human, UniProt P16581 22-610); assay: as above
T2 construct: also called CHO-human E-selectin cells; human CHO-E
T2 sequence: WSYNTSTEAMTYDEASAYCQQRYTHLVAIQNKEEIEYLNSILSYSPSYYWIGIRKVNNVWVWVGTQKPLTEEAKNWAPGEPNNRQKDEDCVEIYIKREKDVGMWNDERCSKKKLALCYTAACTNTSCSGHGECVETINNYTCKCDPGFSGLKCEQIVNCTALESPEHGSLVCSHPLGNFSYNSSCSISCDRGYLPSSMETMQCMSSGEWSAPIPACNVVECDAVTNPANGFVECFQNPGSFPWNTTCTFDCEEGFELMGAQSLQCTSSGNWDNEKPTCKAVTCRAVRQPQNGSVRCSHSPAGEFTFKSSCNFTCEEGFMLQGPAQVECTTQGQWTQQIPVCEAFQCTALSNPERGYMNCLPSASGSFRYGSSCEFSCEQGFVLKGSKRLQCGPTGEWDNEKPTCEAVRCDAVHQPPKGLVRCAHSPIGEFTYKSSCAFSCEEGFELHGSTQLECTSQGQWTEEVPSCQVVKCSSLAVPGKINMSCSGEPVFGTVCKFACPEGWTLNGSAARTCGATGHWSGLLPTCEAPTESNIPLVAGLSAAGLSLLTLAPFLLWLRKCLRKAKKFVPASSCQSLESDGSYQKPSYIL
Experimental: as §1, §2

[3] = target: T3, rabbit E-selectin (rabbit, UniProt P27113 24-495, limits assumed); assay: SPR (BIAcore), single sensorgram per selectin
T3 sequence (looked up): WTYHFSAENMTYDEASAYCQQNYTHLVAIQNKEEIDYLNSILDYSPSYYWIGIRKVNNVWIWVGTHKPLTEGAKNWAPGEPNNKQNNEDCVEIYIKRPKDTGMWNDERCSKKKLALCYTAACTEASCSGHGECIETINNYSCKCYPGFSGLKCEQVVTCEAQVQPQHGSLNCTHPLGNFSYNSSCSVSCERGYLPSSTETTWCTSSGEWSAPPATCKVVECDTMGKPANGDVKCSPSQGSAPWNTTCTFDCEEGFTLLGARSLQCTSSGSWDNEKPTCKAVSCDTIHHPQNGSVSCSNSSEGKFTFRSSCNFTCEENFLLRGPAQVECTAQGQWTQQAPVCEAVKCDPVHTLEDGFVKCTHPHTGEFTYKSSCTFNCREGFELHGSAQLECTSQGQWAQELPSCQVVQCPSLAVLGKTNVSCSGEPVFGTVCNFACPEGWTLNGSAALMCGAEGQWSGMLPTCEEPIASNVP

B1: optimized anti-E-selectin antibody 1444 (antibody, human IgG1, kappa, V domains shown)
VH: EVQLVESGGGLVQPGGSLRLSCAASGYAIRSAYMHWVRQAPGKGLEWVARIDPANGNTIYVDSVTGRFTISADNAKNSAYLQMNSLRAEDTAVYYCAMDLYSTSEYWGQGTLVTVSS
VL: DIQMTQSPSSLSASVGDRVTITCKTSQNIERYLNWYQQKPGKAPKLLIYAASSLQSGVPSRFSGSGSGTDFTLTISSLQPEDFATYFCLQDNAWPLTFGQGTKVEIKR
notes: effector-null human IgG1, kappa
For B1, the IC50 [1] was 1.47 to 2.65 nM, the IC50 [2] was 1.88 to 2.89 nM and the binding result [3] was “no binding”.
